Experimental data published in patent US20220403031A1 (WUXI BIOLOGICS IRELAND, published 2022).

Experiments:
[1] = target: T1, human PD-L1 on CHO-K1 cells (W315-CHO-K1.hPro1.C11) (human, UniProt Q9NZQ7 19-290); test: FACS competition on human PD-L1 CHO-K1 cells: titrated W3156 antibody mixed with 0.5 ug/mL biotinylated BMK8.hIgG4 (m5), SA-PE [A]
T1 construct: whole, on cells; also called cell surface human PD-L1; Human PD-L1-expressing CHO-K1 cell
Protocol: (§1) Human PD-L1 expressing cells W315-CHO-K1.hPro1.C11 were transferred into 96-well U-bottom plates at a density of 1×10⁵ cells/well. […] Then the mixture was added to the cells in 96-well plates and incubated at 4° C. for 1 hour. After washing with 1×PBS/1% BSA, the secondary antibody SA-PE was applied and incubated with cells at 4° C. for 1 hour. The cells were then washed and resuspended in 1×PBS/1% BSA. MFI of the cells was measured by a flow cytometer and analyzed by FlowJo (version 7.6.1).

[2] = target: T2, hPD-L2.ECD.His (SinoBiological-10292-H08H) (human, UniProt Q9BQ51 20-220); test: ELISA on coated protein (1 ug/mL)
T2 construct: extracellular domain; His tag
T2 sequence (looked up): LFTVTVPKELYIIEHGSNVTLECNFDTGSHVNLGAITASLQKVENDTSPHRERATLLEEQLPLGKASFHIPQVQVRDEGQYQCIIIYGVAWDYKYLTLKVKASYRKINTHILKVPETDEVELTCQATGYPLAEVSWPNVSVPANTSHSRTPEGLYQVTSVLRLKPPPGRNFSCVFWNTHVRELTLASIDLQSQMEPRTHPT
Protocol: (§2) The plate was incubated at ambient temperature for 1 hour. The binding of the antibodies to the immobilized proteins was detected by HRP-labeled goat anti-human IgG antibody. The color was developed by dispensing 100 μL of TMB substrate, and then stopped by 100 μL of 2N HCl. The absorbance was read at 450 nm and 540 nm using a microplate spectrophotometer, respectively.

[3] = target: T3, hCD80.ECD.His (SinoBiological-10698-H08H) (human, UniProt P33681 35-242); test: ELISA on coated protein (1 ug/mL)
T3 construct: extracellular domain; His tag
T3 sequence (looked up): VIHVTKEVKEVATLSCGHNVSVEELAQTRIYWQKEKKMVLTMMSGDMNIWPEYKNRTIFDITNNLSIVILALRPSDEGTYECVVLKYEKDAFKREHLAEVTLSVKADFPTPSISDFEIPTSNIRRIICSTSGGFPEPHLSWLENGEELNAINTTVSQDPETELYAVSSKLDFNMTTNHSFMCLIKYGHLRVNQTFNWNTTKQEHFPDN
Protocol: as §2

[4] = target: T4, hCD86.ECD.His (SinoBiological-10699-H08H) (human, UniProt P42081 24-247); test: ELISA on coated protein (1 ug/mL)
T4 construct: extracellular domain; His tag
T4 sequence (looked up): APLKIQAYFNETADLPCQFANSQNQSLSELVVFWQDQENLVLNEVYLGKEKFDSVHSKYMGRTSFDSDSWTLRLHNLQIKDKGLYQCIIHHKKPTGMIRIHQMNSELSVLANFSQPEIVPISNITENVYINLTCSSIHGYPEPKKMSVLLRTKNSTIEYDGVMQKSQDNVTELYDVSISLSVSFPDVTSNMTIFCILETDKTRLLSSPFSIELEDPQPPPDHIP
Protocol: as §2

[5] = target: T1, human PD-L1 on CHO-K1 cells …; test: FACS competition on human PD-L1 CHO-K1 cells: titrated W3156 antibody mixed with 0.5 ug/mL biotinylated BMK6.hIgG4 (m4), SA-PE [A]
Protocol: as §1

T1 sequence (Q9NZQ7 19-290): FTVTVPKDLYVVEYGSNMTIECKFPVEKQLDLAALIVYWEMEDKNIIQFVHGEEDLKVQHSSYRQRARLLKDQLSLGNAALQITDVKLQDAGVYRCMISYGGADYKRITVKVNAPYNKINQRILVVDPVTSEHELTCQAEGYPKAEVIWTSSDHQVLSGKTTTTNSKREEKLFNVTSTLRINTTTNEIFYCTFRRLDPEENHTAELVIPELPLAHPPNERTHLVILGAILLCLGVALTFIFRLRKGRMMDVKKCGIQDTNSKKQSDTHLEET

- IC50 (read off the curve) [1]: ~3 nM
- binding result [2]: no binding (tested: 66.7 nM)
- binding result [3]: no binding (tested: 66.7 nM)
- binding result [4]: no binding (tested: 66.7 nM)
- IC50 (read off the curve) [5]: ~3 nM
B1: AP3R2-1A3-z12-hIgG1 (Fc fusion)
chain: EVQLVESGGGLVQPGGSLRLSCAASGHFSNLAVNWFRQAPGKERELVAGILWSGGSTFYADSVKGRFTISRGNAENMLYLQMNSLRAEDTAVYYCNTGTNWGQGTLVTVSS
notes: VHH-Fc (hIgG1) fusion of the humanized VHH; also called W3156-AP3R2-1A3-z12-hIgG1; W3156 antibody; not shown: Fc of human IgG1
